According to paper doi:10.1101/293530:
Blank lines part the entries; values can stand above or below the molecule they belong to.

Columns and labels:
mCherry-IZ-sCD95L = experiment: fluorescence correlation spectroscopy
mCherry-sCD95L = experiment: fluorescence correlation spectroscopy
[1] = target: T1, CD95-mEos2 (human), P25445; experiment: quantitative PALM; conditions: remark: other sources report otherwise
T1 chain: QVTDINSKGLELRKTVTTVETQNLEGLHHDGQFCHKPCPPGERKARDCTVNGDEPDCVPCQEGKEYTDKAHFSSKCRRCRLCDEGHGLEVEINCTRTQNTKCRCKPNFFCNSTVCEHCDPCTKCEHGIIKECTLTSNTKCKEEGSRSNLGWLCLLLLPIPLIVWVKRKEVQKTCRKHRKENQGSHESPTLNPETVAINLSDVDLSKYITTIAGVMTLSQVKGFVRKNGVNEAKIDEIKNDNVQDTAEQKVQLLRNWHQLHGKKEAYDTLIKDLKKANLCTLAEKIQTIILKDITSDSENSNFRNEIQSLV

stoichiometry N (mCherry-IZ-sCD95L): 3
Molecule: mCherry-IZ-sCD95L (ligand)

stoichiometry N (mCherry-sCD95L): 3
Molecule: mCherry-sCD95L (ligand)

fraction of dimers [1]: 42%
fraction of monomers [1]: 58%
B1: CD95-mEos2, P25445 26-335 (receptor)
chain: QVTDINSKGLELRKTVTTVETQNLEGLHHDGQFCHKPCPPGERKARDCTVNGDEPDCVPCQEGKEYTDKAHFSSKCRRCRLCDEGHGLEVEINCTRTQNTKCRCKPNFFCNSTVCEHCDPCTKCEHGIIKECTLTSNTKCKEEGSRSNLGWLCLLLLPIPLIVWVKRKEVQKTCRKHRKENQGSHESPTLNPETVAINLSDVDLSKYITTIAGVMTLSQVKGFVRKNGVNEAKIDEIKNDNVQDTAEQKVQLLRNWHQLHGKKEAYDTLIKDLKKANLCTLAEKIQTIILKDITSDSENSNFRNEIQSLV
